US20220378931A1 (Eli Lilly, published 2022)
Numbering of substitutions follows the chain as printed. Read-outs that look alike come from different tables or passages of the source.

B1: INS Analog 25 (other)
chain: FVSQHLCGSHLVEALRLVCGERGFFYTPKTGGGGGGGIVEQCCTSICSLYQLENYCGGGGGQGGGGQGGGGQGGGGQGGGGQEVQLLESGGGLVQPGGSLRLSCAASGRYIDETAVAWFRQAPGKEREFVAGIGGGVDITYYADSVKGRFTISRDNSKNTLYLQMNSLRPEDTAVYYCAARPGRPLITSKVADLYPYWGQGTLVTVSSPP
notes: single-chain insulin B-L2-A-L1-VHH fusion; also called Ex. 25
B2: INS Analog 30 (other)
chain: FVSQHLCGSHLVEALRLVCGERGFHYTPKTGGGGGGGIVEQCCHSICSLYQLENYCGPGPQPGPQPGPQPGPQPGPQPGPQPGPQPGPQEVQLLESGGGLVQPGGSLRLSCAASGRYIDETAVAWFRQAPGKEREFVAGIGGGVDITYYADSVKGRFTISRDNSKNTLYLQMNSLRPEDTAVYYCAARPGRPLITSKVADLYPYWGQGTLVTVSSPP
notes: single-chain insulin B-L2-A-L1-VHH fusion; also called Ex. 30
B3: INS Analog 26 (other)
chain: B2 chain with H25F, H44T
notes: single-chain insulin B-L2-A-L1-VHH fusion; also called Ex. 26

Legend:
[1] = target: T1, human insulin receptor isoform A with C-terminal C9 tag (human, UniProt P06213 28-1382); experiment: 125I-insulin competition SPA, hIR-A membranes, 0.1% HSA
T1 construct: membranes of stably transfected HEK293 cells; also called hIR-A; human IR-A
Protocol: (§1) The assays are performed with a SPA method using polyvinyltoluene (PVT) wheat germ agglutinin-coupled SPA beads (Perkin Elmer). Assay buffer contains 50 mM Tris-HCl, pH 7.5, 150 mM NaCl and either A) 0.1% w/v fatty-acid free BSA; B) 0.1% w/v fatty-acid free human serum albumin (HSA); C) 0.1% w/v rat serum albumin (RSA); or D) 0.001% Nonidet P-40 Substitute (NP-40, Roche Diagnostics). Ten-point concentration response curves using three-fold serial dilutions of test samples or controls are prepared in Assay Buffer using a Freedom/Evo robot (Tecan).
(§2) Percent specific inhibition (y-axis) is plotted versus the log concentration of compound (x-axis). […] Reported Ki values are shown as the geometric mean with the standard error (Delta Method Standard Error) and the number of independent replicate determinations used to calculate the geometric mean indicated by n.

rabbit serum albumin = target: T2, rabbit serum albumin (rabbit, UniProt P49065 25-608); experiment: SPR (Biacore 8K), albumin immobilised, 25 C
T2 construct: bought protein, amine-coupled to a CM5 chip; also called Rabbit SA
Protocol: (§3) Immobilization of serum albumin to a Series S Sensor Chip CM5 surface is performed according to the manufacturer's instructions (Amine Coupling Kit BR-1000-50). Briefly, carboxyl groups on the sensor chip surfaces (flow cell 1 and 2) are activated by injecting 70 μL of a mixture containing 75 mg/ml EDC and 11.5 mg/ml NHS at 10 μL/min. Human, cynomolgus monkey, mouse, rat, pig, dog, cow and rabbit serum albumin are diluted in 10 mM NaOAc pH 4.0 (BR-1003-49) at 1, 1, 3, 1, 1, 1, 1 and 1 μg/mL and then injected over the activated chip surfaces (flow cell 2, […]) at 10 μL/min for 90 sec (human, mouse, rat, pig and cow serum albumin are obtained from Sigma Aldrich (St. Louis, Mo.); cynomolgus monkey serum albumin is obtained from Holzel Diagnostika (Cologne, Germany); dog serum albumin is obtained from Molecular Innovations (Novi, Mich.); and rabbit serum albumin is obtained from Fitzgerald Industries International (Acton, Mass.)). […] Excess reactive groups on the surfaces (flow cell 1 and 2) are deactivated by injecting 70 μL of 1 M ETA HCl—NaOH pH 8.5 at 10 μL/min.
(§4) 150 μL of sample is individually injecting sequentially across the immobilized serum albumins surface and then dissociates for 600 sec at 50 μL/min flow rate at 25° C. The surface is regenerated by injecting 10 mM glycine-HCl pH 1.5 (BR-1003-54) at 50 μL/min for 100 sec. The resulting sensorgrams are analyzed using Biacore 8K Insight Evaluation Software (version 2.0.15.12933) 1:1 binding kinetics or steady-state affinity model fitting to calculate the binding kinetic parameter association rate (ka), dissociation rate (kd), and equilibrium dissociation constant (KD)

[2] = target: T3, human insulin receptor isoform B with C-terminal C9 tag (human, UniProt P06213 28-1382); experiment: 125I-insulin competition SPA, hIR-B membranes, 0.1% HSA
T3 construct: membranes of stably transfected HEK293 cells; also called hIR-B; human IR-B
Protocol: as §1, §2

cow serum albumin [3] = target: T4, cow serum albumin (cow, UniProt P02769 25-607); experiment: SPR (Biacore 8K), albumin immobilised, 25 C, steady-state affinity
T4 construct: bought protein, amine-coupled to a CM5 chip; also called Cow SA; Bovine SA

[4] = target: T1, human insulin receptor isoform A with …; experiment: 125I-insulin competition SPA, hIR-A membranes, 0.1% BSA
Protocol: as §1, §2

[5] = target: T5, cynomolgus monkey serum albumin (cynomolgus monkey, UniProt A2V9Z4 25-608); experiment: SPR (Biacore 8K), albumin immobilised, 25 C, 1:1 kinetics
T5 construct: bought protein, amine-coupled to a CM5 chip; also called Cyno SA
Protocol: as §3, §4

rat serum albumin = target: T6, rat serum albumin (rat, UniProt P02770 25-608); experiment: as above
T6 construct: bought protein, amine-coupled to a CM5 chip; also called Rat SA; RSA
Protocol: as §3, §4

human serum albumin = target: T7, human serum albumin (human, UniProt P02768 25-609); experiment: as above
T7 construct: bought protein, amine-coupled to a CM5 chip; also called Human SA; HSA
Protocol: as §3, §4

dog serum albumin = target: T8, dog serum albumin (dog, UniProt P49822 25-608); experiment: as above
T8 construct: bought protein, amine-coupled to a CM5 chip; also called Dog SA
Protocol: as §3, §4

mouse serum albumin = target: T9, mouse serum albumin (mouse, UniProt P07724 25-608); experiment: as above
T9 construct: bought protein, amine-coupled to a CM5 chip; also called Mouse SA
Protocol: as §3, §4

pig serum albumin = target: T10, pig serum albumin (pig, UniProt P08835 25-607); experiment: as above
T10 construct: bought protein, amine-coupled to a CM5 chip; also called Pig SA
Protocol: as §3, §4

[6] = target: T3, human insulin receptor isoform B with …; experiment: 125I-insulin competition SPA, hIR-B membranes, 0.001% NP-40
Protocol: as §1, §2

[7] = target: T1, human insulin receptor isoform A with …; experiment: 125I-insulin competition SPA, hIR-A membranes, 0.001% NP-40
Protocol: as §1, §2

[8] = target: T3, human insulin receptor isoform B with …; experiment: 125I-insulin competition SPA, hIR-B membranes, 0.1% BSA
Protocol: as §1, §2

cow serum albumin [9] = target: T4, cow serum albumin; experiment: SPR (Biacore 8K), albumin immobilised, 25 C, steady-state affinity; remark: listed apart in the source
Protocol: as §3, §4

Binder | Ki [1] [nM] | binding result (rabbit serum albumin) | Ki [2] [nM] | Ki [4] [nM] | Kd [5] [nM] | koff [5] [s⁻¹] | kon [5] [M⁻¹ s⁻¹] | Kd (rat serum albumin) [nM] | koff (rat serum albumin) [s⁻¹] | kon (rat serum albumin) [M⁻¹ s⁻¹] | Kd (human serum albumin) [nM] | koff (human serum albumin) [s⁻¹] | kon (human serum albumin) [M⁻¹ s⁻¹] | Kd (dog serum albumin) [nM] | koff (dog serum albumin) [s⁻¹] | kon (dog serum albumin) [M⁻¹ s⁻¹] | Kd (mouse serum albumin) [nM] | koff (mouse serum albumin) [s⁻¹] | kon (mouse serum albumin) [M⁻¹ s⁻¹] | Kd (pig serum albumin) [nM] | also measured
B1 | 125 | no binding (tested: up to 1000 nM) | 279 | 630 | 3.5 | 0.00079 | 230000 | 34 | 0.0066 | 200000 | 0.32 | 8.4e-05 | 260000 | 16 | 0.0033 | 200000 | 42 | 0.0092 | 220000 | 90 | Kd (cow serum albumin [3]): 390 nM; koff (pig serum albumin): 0.011 s⁻¹; kon (pig serum albumin): 130000 M⁻¹ s⁻¹; Ki [6]: 641 nM; Ki [7]: 174 nM; Ki [8]: 790 nM
B2 | 17.2 | no binding (tested: up to 1000 nM) | 24.5 | 127 | 4.3 | 0.00069 | 160000 | 30 | 0.0051 | 170000 | 0.73 | 0.00011 | 160000 | 13 | 0.0022 | 170000 | 39 | 0.0071 | 190000 | 80 | koff (pig serum albumin): 0.0092 s⁻¹; kon (pig serum albumin): 110000 M⁻¹ s⁻¹; Kd (cow serum albumin [9]): 370 nM; Ki [6]: 60 nM; Ki [7]: 49.3 nM; Ki [8]: 100 nM
B3 | 40.6 | no binding (tested: up to 1000 nM) | 105 | 389 | 3.9 | 0.00069 | 180000 | 32 | 0.0056 | 170000 | 0.49 | 9.4e-05 | 190000 | 13 | 0.0023 | 170000 | 35 | 0.0069 | 200000 | 87 | koff (pig serum albumin): 0.0098 s⁻¹; kon (pig serum albumin): 110000 M⁻¹ s⁻¹; Kd (cow serum albumin [9]): 400 nM; Ki [6]: 214 nM; Ki [7]: 105 nM; Ki [8]: 405 nM
